B1: CPEB3 Ribozyme (parent)
chain: GGGGGCCACAGCAGAAGCGUUCACGUCGCGGCCCCUGUCAGAUUCUGGUGAAUCUGCGAAUUCUGCUGU

Variants of: B1
Experiment: self-cleavage, relative activity (ratio to wild type); higher = more cleavage; co-transcriptional
In the case of GGGGGCCACAGCAGAAGCGUUCACCUCGCGGCCCCUGUCACAUUCUGGUGAAUCUGCGAAUUCUGCUGU [G25C G41C], the self-cleavage is reported as 0.0934. With GGGGGCCACAGCAGAAGCGUUCACCUCGCGGCCCCUGUCAGAUUCUGGUGAAUCUGAGAAUUCUGCUGU [G25C C57A] the self-cleavage was 0.14. For GGGGGCCACAGCAGAAGCGUUCACAUCGCGGCCCCUGUCAGAUUCUGGUGAAUCUGCGAAUUCUGCUGA [G25A U69A], the self-cleavage was 0.295. GGGGGCCACAGCAGAAGCGUUCACAUCGCGGCCCCUGUCAGAUUCUGGUGAAUCUGCGAAUUCUGCUGC [G25A U69C] gave a self-cleavage of 0.36. GGGGGCCACAGCAGAAGCGUUCACAUCGCGGCCCCUGUCAGAUUCUGGCGAAUCUGCGAAUUCUGCUGU [G25A U49C] gave a self-cleavage of 0.219. For GGGGGCCACAGCAGAAGCGUUCACAUCGCGGCCCCUGUCAGAUUCUGGGGAAUCUGCGAAUUCUGCUGU [G25A U49G], the self-cleavage was 0.207. GGGGGCCACAGCAGAAGCGUUCACCUCGCGGCCCCUGUCAGAUUCUGGUAAAUCUGCGAAUUCUGCUGU [G25C G50A] showed a self-cleavage of 0.186. Work on GGGGGCCACAGCAGAAGCGUUCACCUCGCGGCCCCUGUAAGAUUCUGGUGAAUCUGCGAAUUCUGCUGU [G25C C39A] yielded a self-cleavage of 0.197. For GGGGGCCACAGCAGAAGCGUUCACCUCGCGGCCCCUGUUAGAUUCUGGUGAAUCUGCGAAUUCUGCUGU [G25C C39U], the self-cleavage was 0.192. Variant GGGGGCCACAGCAGAAGCGUUCACCUCGCGGCCCCUGUGAGAUUCUGGUGAAUCUGCGAAUUCUGCUGU [G25C C39G] has a self-cleavage of 0.164. For GGGGGCCACAGCAGAAGCGUUCACCUCGCGGCCCCUGUCAGAUUCUGGUGAAUCUGCGAAUUCUGCUGU [G25C], the self-cleavage was 0.17. In the case of GGGGGCCACAGCAGAAGCGUUCACAUCGCGGCCCCUGUCAGAUUCUGGUGAAUCUGCGAAUUCUGCCGU [G25A U67C], the self-cleavage is reported as 0.133. In the case of GGGGGCCACAGCAGAAGCGUUCACAUCGCGGCCCCUGUCAGAUUCUGGUGAAUCUGCGAAUUCUGCGGU [G25A U67G], the self-cleavage is reported as 0.266. For GGGGGCCACAGCAGAAGCGUUCACAUCGCGGCCCCUGUCAGAUUCUGGUGAAUCUGCGAAGUCUGCUGU [G25A U61G], the self-cleavage was 0.219. GGGGGCCACAGCAGAAGCGUUCACAUCGCGGCCCCUGUCAGAUUCUGGUGAAUCUGCGAACUCUGCUGU [G25A U61C] gave a self-cleavage of 0.247. With GGGGGCCACAGCAGAAGCGUUCACCUCGCGGCCCCUGUCAGAUUCUGGUGAAUAUGCGAAUUCUGCUGU [G25C C54A] the self-cleavage was 0.136. Variant GGGGGCCACAGCAGAAGCGUUCACCUCGCGGCCCCUGUCAGAUUCUGGUGAAUGUGCGAAUUCUGCUGU [G25C C54G] has a self-cleavage of 0.162. With GGGGGCCACAGCAGAAGCGUUCACCUCGCGGCCCCUGUCAGAUUCUGGUGAAUUUGCGAAUUCUGCUGU [G25C C54U] the self-cleavage was 0.133. Work on GGGGGCCACAGCAGAAGCGUUCACAUCGCGGCCCCUGUCAGAUUCUGGUGAAUCUGCGAAUUCAGCUGU [G25A U64A] yielded a self-cleavage of 0.19. For GGGGGCCACAGCAGAAGCGUUCACAUCGCGGCCCCUGUCAGAUUCUGGUGAAUCUGCGAAUUCGGCUGU [G25A U64G], the self-cleavage was 0.185. Work on GGGGGCCACAGCAGAAGCGUUCACAUCGCGGCCCCUGUCAGAUUCUGGUGAAUCUGCGAAUUCCGCUGU [G25A U64C] yielded a self-cleavage of 0.14. In the case of GGGGGCCACAGCAGAAGCGUUCACAUCGCGGCCCCUGUCAGAUUCUGGUGAAUCUGCGAAUCCUGCUGU [G25A U62C], the self-cleavage is reported as 0.19. For GGGGGCCACAGCAGAAGCGUUCACAUCGCGGCCCCUGUCAGAUUCUGGUGAAUCUGCGAAUACUGCUGU [G25A U62A], the self-cleavage was 0.187. GGGGGCCACAGCAGAAGCGUUCACCUCGCGUCCCCUGUCAGAUUCUGGUGAAUCUGCGAAUUCUGCUGU [G25C G31U] gave a self-cleavage of 0.176. Work on GGGGGCCACAGCAGAAGCGUUCACCUCGCGCCCCCUGUCAGAUUCUGGUGAAUCUGCGAAUUCUGCUGU [G25C G31C] yielded a self-cleavage of 0.143. GGGGGCCACAGCAGAAGCGUUCACAUCGCGGCCCCUGUCAGAUUCUGGUGAAACUGCGAAUUCUGCUGU [G25A U53A] showed a self-cleavage of 0.171. GGGGGCCACAGCAGAAGCGUUCACAUCGCGGCCCCUGUCAGAUUCUGGUGAAGCUGCGAAUUCUGCUGU [G25A U53G] gave a self-cleavage of 0.169. For GGGGGCCACAGCAGAAGCGUUCACAUCGCGGCCCCUGUCAGAUUCUGGUGAACCUGCGAAUUCUGCUGU [G25A U53C], the self-cleavage was 0.206. With GGGGGCCACAGCAGAAGCGUUCACCUCGCGGCCCCUGUCAGAUUCUGGUGAAUCUGCGAAUUCUGUUGU [G25C C66U] the self-cleavage was 0.15. Work on GGGGGCCACAGCAGAAGCGUUCACCUCGCGGCCCCUGUCAGAUUCUGGUGAAUCUGCGAAUUCUGGUGU [G25C C66G] yielded a self-cleavage of 0.0932. Variant GGGGGCCACAGCAGAAGCGUUCACCUCGCGGCCCCUGUCAGAUUCUGGUGAAUCUGCGAAUUCUGAUGU [G25C C66A] has a self-cleavage of 0.134. For GGGGGCCACAGCAGAAGCGUUCACCUGGCGGCCCCUGUCAGAUUCUGGUGAAUCUGCGAAUUCUGCUGU [G25C C27G], the self-cleavage was 0.225. GGGGGCCACAGCAGAAGCGUUCACCUUGCGGCCCCUGUCAGAUUCUGGUGAAUCUGCGAAUUCUGCUGU [G25C C27U] showed a self-cleavage of 0.172. For GGGGGCCACAGCAGAAGCGUUCACCUCGCGGCCCCUGUCAGAUUCUGGUGAAUCUGCGAAUUUUGCUGU [G25C C63U], the self-cleavage was 0.136. Variant GGGGGCCACAGCAGAAGCGUUCACCUCGCGGCCCCUGUCAGAUUCUGGUGAAUCUGCGUAUUCUGCUGU [G25C A59U] has a self-cleavage of 0.176. With GGGGGCCACAGCAGAAGCGUUCACCUCGCGGCCCCUGUCAGAUUCUGGUGAAUCUGCGGAUUCUGCUGU [G25C A59G] the self-cleavage was 0.169. GGGGGCCACAGCAGAAGCGUUCACCUCGCGGCCCCUGUCAGAUUCUGGUGAAUCUGCGCAUUCUGCUGU [G25C A59C] gave a self-cleavage of 0.193. For GGGGGCCACAGCAGAAGCGUUCACCUCGCGGCCCCUGUCAGAUUCUGGUGCAUCUGCGAAUUCUGCUGU [G25C A51C], the self-cleavage was 0.227. For GGGGGCCACAGCAGAAGCGUUCACCUCGCGGCCCCUGUCAGAUUCUGGUGGAUCUGCGAAUUCUGCUGU [G25C A51G], the self-cleavage was 0.203.

From the RNAGym collection of RNA variant scans (doi:10.7554/elife.80360)
